Experimental data reported in patent publication US20090035307A1 (AbbVie / Abbott, published 2009).
Blank lines part the entries; values can stand above or below the binder they belong to.

How the values were obtained:
Aβ(1-40) monomer = biological target: T1, Aβ(1-40) monomer (human); test: dot blot, antibody 0.2 µg/mL
T1 construct: Synthetic peptide (Bachem) freshly dissolved in 0.1% NH4OH or 0.1% NaOH; both preparations were dotted; also called Aβ(1-40) monomer, 0.1% NH4OH; Aβ(1-40) monomer, 0.1% NaOH
T1 sequence (peptide, as listed by the source): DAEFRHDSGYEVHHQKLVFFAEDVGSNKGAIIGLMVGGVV
Method: (§1) For detection, the corresponding antibody was used (0.2 μg/mL). Immunostaining was done using peroxidase conjugated anti-mouse-IgG and the staining reagent BM Blue POD Substrate (Roche).
(§2) 1) 1 μL each of the different Aβ-standards (in their 5 serial dilutions) were dotted onto the nitrocellulose membrane in a distance of approximately 1 cm from each other. [0267] 2) The Aβ-standards dots were allowed to dry on the nitrocellulose membrane on air for at least 10 min at room temperature (RT) (=dot blot). [0268] 3) Blocking: [0269] The dot blot was incubated with 30 mL 5% low fat milk in TBS for 1.5 h at RT. [0270] 4) Washing: [0271] The blocking solution was discarded and the dot blot incubated under shaking with 20 mL TTBS for 10 min at RT. [0272] 5) Antibody solution I: [0273] The washing buffer was discarded and the dot blot incubated with antibody solution I for 2 h at RT. [0274] 6) Washing: [0275] The antibody solution I was discarded and the dot blot incubated under shaking with 20 mL TTBS for 10 min at RT. The washing solution was discarded and the dot blot incubated under shaking with 20 mL TTBS for 10 min at RT. The washing solution was discarded and the dot blot incubated under shaking with 20 mL TBS for 10 min at RT. [0276] 7) Antibody solution II: [0277] The washing buffer was discarded and the dot blot incubated with antibody solution II overnight at RT. [0278] 8) Washing: [0279] The antibody solution II was discarded and the dot blot incubated under shaking with 20 mL TTBS for 10 min at RT. The washing solution was discarded and the dot blot incubated under shaking with 20 mL TTBS for 10 min at RT. The washing solution was discarded and the dot blot incubated under shaking with 20 mL TBS for 10 min at RT. [0280] 9) Development: [0281] The washing solution was discarded. The dot blot was developed with 10 mL BM Blue POD Substrate for 10 min. The development was stopped by intense washing of the dot blot with H₂O. Quantitative evaluation was done using a densitometric analysis (GS800 densitometer (BioRad) and software package Quantity one, Version 4.5.0 (BioRad)) of the dot-intensity. […] This threshold value was determined for every dot-blot independently.

Aβ(20-42) globulomer = biological target: T2, Aβ(20-42) globulomer (human); test: dot blot, antibody 0.2 µg/mL
T2 peptide: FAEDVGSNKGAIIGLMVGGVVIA
Method: as §1, §2

Aβ(12-42) globulomer = biological target: T3, Aβ(12-42) globulomer (human); test: dot blot, antibody 0.2 µg/mL
T3 peptide: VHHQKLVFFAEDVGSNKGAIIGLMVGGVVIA
Method: as §1, §2

Aβ(1-42) globulomer = biological target: T4, Aβ(1-42) globulomer (human); test: dot blot, antibody 0.2 µg/mL
T4 construct: also called 38/48-kDa Aβ(1-42) globulomer; Aβ(1-42) globular oligomer
Method: as §1, §2

Aβ(1-42) monomer = biological target: T5, Aβ(1-42) monomer (human); test: dot blot, antibody 0.2 µg/mL
T5 construct: Synthetic peptide (Bachem H-1368) freshly dissolved in 0.1% NH4OH or 0.1% NaOH; both preparations were dotted; also called Aβ(1-42) monomer, 0.1% NH4OH; Aβ(1-42) monomer, 0.1% NaOH
Method: as §1, §2

[1] = biological target: T6, soluble amyloid precursor protein-alpha (sAPPα) (UniProt P05067-4 18-612, limits assumed); test: dot blot on nitrocellulose, densitometry
T6 construct: Bought protein; also called sAPPα (Sigma)
T6 sequence (P05067 other isoform, or with tags, fused parts or gaps limits assumed): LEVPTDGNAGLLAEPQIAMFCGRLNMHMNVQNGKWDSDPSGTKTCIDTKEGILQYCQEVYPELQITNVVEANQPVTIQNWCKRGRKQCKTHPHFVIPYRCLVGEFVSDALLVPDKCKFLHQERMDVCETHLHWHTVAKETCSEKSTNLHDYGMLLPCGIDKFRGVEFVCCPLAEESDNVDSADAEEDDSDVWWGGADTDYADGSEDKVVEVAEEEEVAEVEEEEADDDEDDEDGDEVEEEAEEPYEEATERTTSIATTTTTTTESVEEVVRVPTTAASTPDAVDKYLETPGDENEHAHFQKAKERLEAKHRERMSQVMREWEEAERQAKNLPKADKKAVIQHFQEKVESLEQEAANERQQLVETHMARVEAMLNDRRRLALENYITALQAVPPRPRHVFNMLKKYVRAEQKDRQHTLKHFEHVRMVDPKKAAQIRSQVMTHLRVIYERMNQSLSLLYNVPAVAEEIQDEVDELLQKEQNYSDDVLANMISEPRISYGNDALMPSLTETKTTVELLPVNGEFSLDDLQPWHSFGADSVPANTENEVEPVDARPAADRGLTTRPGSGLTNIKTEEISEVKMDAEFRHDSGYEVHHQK
Method: as §1
1) 1 μL each of the different Aβ-standards (in their 5 serial dilutions) were dotted onto the nitrocellulose membrane in a distance of approximately 1 cm from each other. [0267] 2) The Aβ-standards dots were allowed to dry on the nitrocellulose membrane on air for at least 10 min at room temperature (RT) (=dot blot). [0268] 3) Blocking: [0269] The dot blot was incubated with 30 mL 5% low fat milk in TBS for 1.5 h at RT. [0270] 4) Washing: [0271] The blocking solution was discarded and the dot blot incubated under shaking with 20 mL TTBS for 10 min at RT. [0272] 5) Antibody solution I: [0273] The washing buffer was discarded and the dot blot incubated with antibody solution I for 2 h at RT. [0274] 6) Washing: [0275] The antibody solution I was discarded and the dot blot incubated under shaking with 20 mL TTBS for 10 min at RT. The washing solution was discarded and the dot blot incubated under shaking with 20 mL TTBS for 10 min at RT. […] Quantitative evaluation was done using a densitometric analysis (GS800 densitometer (BioRad) and software package Quantity one, Version 4.5.0 (BioRad)) of the dot-intensity. […] This threshold value was determined for every dot-blot independently.

[2] = biological target: T7, Aβ(1-42) peptide in the CSF of an Alzheimer's disease patient (human); test: immunoprecipitation from CSF with antibody-coated Dynabeads, urea-PAGE and Western blot
T7 construct: Endogenous peptide immunoprecipitated from patient CSF; also called Aβ(1-42) peptide present in cerebrospinal fluid (CSF)
Method: Activation of Dynabeads with monoclonal mouse antibodies [0497] the stock-suspension of dynabeads (Dynabeads M-280 Sheep anti-Mouse IgG, Invitrogen; Prod. No. 112.02) was shaken carefully to prevent foaming [0498] 1 mL was aseptically removed and transferred to a 1.5 mL reaction vial [0499] the dynabeads were washed 3 times 5 min with 1 mL immunoprecipitation (IP)-wash buffer (IP-wash-buffer: PBS (20 mM NaH₂PO₄, 140 mM NaCl, pH 7.4), 0.1% (w/v) BSA) During the washing procedure the supernatant was carefully removed while the dynabeads were immobilized at the side of the reaction vial with a magnetic separator stand (MSS) [0500] the washed dynabeads were incubated with 40 μg Aβ-antibody in 1 mL PBS, 0.1% (w/v) BSA [0501] the activation was carried out by overnight incubation under shaking at 4° C. [0502] the activated dynabeads were washed 4 times 30 min (again using the MSS) with 1 mL IP-wash buffer (PBS (20 mM NaH₂PO₄, 140 mM NaCl, pH 7.4), 0.1% (w/v) BSA) [0503] the activated dynabeads were resuspended with 1 mL PBS, 0.1% (w/v) BSA, 0.02% (w/v) Na-Azide; vortexed and centrifuged briefly [0504] the antibody activated dynabeads were stored at 4° C. until further use
250 μL aliquot of the prepared CSF sample were added to 25 μL anti-Aβ-Dynabeads suspension [0507] Immunoprecipitation occurred under stirring at 6° C. for 16 hours. […]

binding result (Aβ(1-40) monomer): binds | binding result (Aβ(20-42) globulomer): binds | binding result (Aβ(12-42) globulomer): binds | binding result (Aβ(1-42) globulomer): binds | binding result (Aβ(1-42) monomer): binds | binding result [2]: binds
B1: monoclonal antibody 10F4 (antibody, V domains shown)
VH: QVQLQQSGAELVRPGTSVRVSCKASGYAFTNYLIEWVKQRPGQGLEWIGVINPGSGDTNYNENFKGKATLTADKSSSTAYMHLSSLTSDDSAVYFCTRGVITTGFDYWGQGTTLTISS
VL: DIQMTQSPASLSASVGETVTITCRASGNIHNYLAWYQQKQGKSPQLLVYNAKTLADGVPSRFSGSGSGTQYSLKINSLQPEDFGSYYCQHFWSSPRTFGGGTKLEIKR
notes: Murine monoclonal antibody from a hybridoma (Balb/c mice immunized with Aβ(12-42) globulomer); also called mAb 10F4; ML43-10F4.3H8
binding result [1]: no binding (tested: antibody 0.2 µg/mL; first dot: 1 pmol)

binding result (Aβ(1-40) monomer): binds | binding result (Aβ(20-42) globulomer): binds | binding result (Aβ(12-42) globulomer): binds | binding result (Aβ(1-42) globulomer): binds | binding result (Aβ(1-42) monomer): binds | binding result [2]: binds
B2: monoclonal antibody 3C5 (antibody, V domains shown)
VH: DVQLQESGPGLVKPSQSLSLTCTVAGSSITSHYAWNWIRQFPGNKLEWMGYIDYSGSTRYLPSLKSRISITRDTSKNQFFLQLNSVTTEDTATYYCARGSGYFYGMDYWGQGTSVTVSS
VL: DIQMNQSPSSLSPSLGDTITITCHASQNINVWLSWYQQKPGNIPKLLIYKASNLHTGVPSRFSGSGSGIGFTLTIRSLQPEDIATYFCQQGQSYPYTFGGGTKLEIKR
notes: Murine monoclonal antibody from a hybridoma (Balb/c mice immunized with Aβ(12-42) globulomer); also called mAb 3C5; ML45-3C5.5
binding result [1]: no binding (tested: antibody 0.2 µg/mL; first dot: 1 pmol)
